The target in assay [1] is T1, recombinant heparanase 8 kDa/50 kDa heterodimer (baculovirus, insect cell expressed) (human, UniProt Q9Y251 36-109; Q9Y251 158-543).
T1 construct: domain: 8 kDa subunit;domain: 50 kDa subunit; Amplified from a mammary gland cDNA library; In one screening ELISA it was biotinylated; also called 8/50 heterodimer protein; purified recombinant heparanase
T1 sequence 1: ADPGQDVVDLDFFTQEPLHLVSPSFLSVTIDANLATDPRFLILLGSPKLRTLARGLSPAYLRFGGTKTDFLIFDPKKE
T1 sequence 2: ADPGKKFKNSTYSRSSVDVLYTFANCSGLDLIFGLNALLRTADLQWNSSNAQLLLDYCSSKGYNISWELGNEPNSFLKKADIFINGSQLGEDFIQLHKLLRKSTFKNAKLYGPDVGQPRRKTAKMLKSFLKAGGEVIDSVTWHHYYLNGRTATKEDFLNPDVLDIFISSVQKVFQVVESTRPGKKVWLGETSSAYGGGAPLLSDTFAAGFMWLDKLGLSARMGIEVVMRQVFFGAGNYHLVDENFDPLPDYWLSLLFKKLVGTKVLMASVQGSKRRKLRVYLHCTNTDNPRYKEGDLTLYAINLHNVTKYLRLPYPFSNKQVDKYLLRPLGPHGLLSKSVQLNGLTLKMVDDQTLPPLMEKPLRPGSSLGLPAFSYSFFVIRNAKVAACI
As to the kind of experiment: ELISA on coated recombinant heparanase and on biotin-heparanase captured by streptavidin; hybridoma supernatants. Here is the method: To select KM mice producing antibodies that bound heparanase, sera from immunized mice was tested by ELISA as described by Fishwild, D. et al. (1996). Briefly, microtiter plates were coated with purified recombinant heparanase from baculovirus at 1-2 μg /ml in PBS, 50 μl/wells incubated 4° C. overnight then blocked with 200 μl/well of 5% chicken serum in PBS/Tween (0.05%). Dilutions of plasma from heparanase-immunized mice were added to each well and incubated for 1-2 hours at ambient temperature. The plates were washed with PBS/Tween and then incubated with a goat-anti-human IgG Fc polyclonal antibody conjugated with horseradish peroxidase (HRP) for 1 hour at room temperature. After washing, the plates were developed with ABTS substrate (Sigma, A-1 888, 0.22 mg/ml) and analyzed by spectrophotometer at OD 415-495. Mice that developed the highest titers of anti-heparanase antibodies were used for fusions. Fusions were performed as described above and hybridoma supernatants were tested for anti-heparanase activity by ELISA. In order to select antibodies that bind to heparanase enzyme, an ELISA assay as described above and a biotinylated ELISA as described above with following modifications were applied. Briefly, ELISA plates were coated with streptavidin (Sigma catalog number: S-4762) at 1 μg/ml in PBS, 50 ul/well. After overnight incubation at 4° C., the plates were blocked with 200 μl/well of 5% chicken serum in PBS/Tween (0.05%). The plates were then washed with PBS/Tween three times. Biotin-heparanase was added to the plates at 1 μg/ml in PBS, 50 ul/well and then incubated for 1 hour at room temperature. 50 ul/well of the supernatants were then added to the plates and incubated for 1-2 hours at room temperature. The rest of the procedures were exactly the same as described above. Hybridomas secreting a monoclonal antibody that bound with high avidity to heparanase were selected for further characterization for enzymatic, motility and angiogenesis activities.
In general terms: In an ELISA, binding on a coated surface is turned into a signal by an enzyme label.

For assay [2], the target named is T1, recombinant heparanase 8 kDa/50 kDa …. As to the kind of experiment: competition binding format.

Changes are numbered by the printed parent chain.

B1: human monoclonal antibody 5G10 (antibody, V domains shown)
VH: QVQLVQSGAEVKKPGASVKVSCKVSGYTLTELSMHWVRQAPGKGLEWMGGFDPEDGETIYAQKFQGRVTMTEDTSTDTAYMELSSLRSEDTAVYYCATESLVRYFDWLSHFDYWGQGTLVTVSS
VL: DIQMTQSPSSLSASVGDRVTITCRASQGISSWLAWYQQKPEKAPKSLIYAASSLQSGVPSRFSGSGSGTDFTLTISSLQPEDFATYYCQQYNSYPYTFGQGTKLEIK
notes: Human IgG kappa from a KM mouse hybridoma; subclass not reported
For B1, the binding result in assay [1] is “binds”.

B2: human monoclonal antibody 13B2 (antibody, V domains shown)
VH: EVQLVESGGGLVQPGGSLRLSCAASGFTFSSYWMSWVRQAPGKGLEWVASIYQDGSEKYYVDSVKGRFTISRDNAKNSLYLQMNSLRAEDTAMYYCARELDWGWDYWGQGTLVTVSS
VL: B1 VL with D1A, M4L, W32A, E41G, S46L, A50D, Q55E, Y91F, Y96I, K103R
notes: as for B1
Regarding B2, the binding result in assay [1] is “binds”.

B3: human monoclonal antibody 2H8 (antibody, V domains shown)
VH: B1 VH with G66D, A97T
VL: B1 VL
notes: as for B1
B3: in assay [1], the binding result was “binds”.

B4: human monoclonal antibody 1E7 (antibody, V domains shown)
VH: B2 VH with M93V
VL: B1 VL with D1A, M4L, W32A, E41G, S46L, A50D, Q55E, Y91F, Y96I, K103R
notes: as for B1
Regarding B4, in assay [1], the binding result is recorded as “binds”.

B5: human monoclonal antibody 22D9 (antibody, V domains shown)
VH: B1 VH with E89D
VL: B1 VL
notes: Fully human IgG with kappa light chain from a KM mouse hybridoma, purified by Protein A
In the case of B5, the binding result in assay [2] is reported as “binds”.
